B1: Heterogeneous nuclear ribonucleoprotein U-like protein 2, residues 1 to 40; numbered along this chain, Q1KMD3 (parent)
chain: MEVKRLKVTELRSELQRRGLDSRGLKVDLAQRLQEALDAE

Variants of: B1
Assay: abundance fitness (aPCA) (normalised: wild type 0, dead -1); higher = more abundant; growth selection in yeast, the domain comes from the species named
Conditions: Homo sapiens

Abundance fitness: each site, then its substitutions
V8: G -0.354; F -0.289; I -0.265; A -0.077; S -0.167; W -0.435; T 0.033; R -0.334; L -0.025; K -0.163; Q -0.169; Y 0.072; C -0.146
Q16: R -0.104; D -0.079; N -0.074; T -0.03; Y -0.405; I 0.169; A -0.047; W -0.539; V -0.077; M -0.013; H -0.178; E 0.098; S -0.032; G -0.171; C -0.299; L -0.09
D21: Y -0.204; H -0.422; I -0.871; F -0.591; W -0.74; M -0.453; A -0.41; R -0.645; L -0.557; T -0.217; C -0.068; G -0.572; K -0.428
L11: A -0.458; T -0.436; P -0.584; D -0.436; K -0.495; V -0.375; R -0.641; Q -0.448; E -0.336; I -0.109; N -0.435; H -0.827; M -0.055; C -0.988; F -0.574; W -1.08; S -0.438; G -0.502
L20: W -0.624; P -0.65; Y -0.462; G -0.51; T -0.563; H -0.572; A -0.352; Q -0.364; V -0.358; E -0.383; R -0.558; N -0.77; C -0.265; I -0.151; D -0.304; S -0.496; F -0.353; M -0.033
R12: F -0.574; P -0.751; Q 0.036; H -0.339; A -0.212; T -0.165; E -0.147; D -0.403; V -0.112; W -0.845; G -0.507; S -0.332; L -0.495
E10: Y -0.869; W -0.599; A -0.336; L -0.641; R -0.619; N -0.726; Q -0.023; K -1.08; V -0.376; P -0.758; T -0.305; S -0.512; M -0.329
R23: W -0.185; T 0.225; K 0.082; L -0.057; A 0.158; Y 0.041; V -0.019; N 0.127; E 0.166; S 0.167; Q 0.114; D 0.136; G 0.091; M -0.232; H 0.092; P -0.6; C 0.062; F -0.137
T9: I 0.102; M 0.074; Y -0.135; C -0.054; A -0.04; G -0.017; L -0.27; P -0.132; H 0.163; S -0.083; V -0.153; K 0.099; Q 0.022; R -0.012; W -0.103; E 0.113
G24: R -1.03; A -0.832; Y -1.1; P -0.578; L -0.984; K -0.945; V -0.855; T -0.837; C -0.773; Q -0.612; S -0.703; W -1.47; M -0.81
K26: M -0.048; F -0.361; A -0.066; G -0.178; L -0.179; T -0.154; P -0.002; V -0.149; W -0.146; S -0.189; R -0.074; I -0.117; E 0.107; Q 0.008; Y -0.103; D -0.019

— the Human Domainome abundance scans (Beltran et al. 2025)
